Test results taken from publication doi:10.1101/2024.08.15.608188, “Myosin forces elicit an F-actin structural landscape that mediates mechanosensitive protein recognition” (bioRxiv, 2024).

Target: the molecule itself
Assay: cryo-EM structure; dual motor condition (surface-anchored myosin-5 and myosin-6, 1 μM ATP) on holey carbon grids; 0.6 μM F-actin, 1 μM α-catenin ABD applied in Motility Buffer (20 mM MOPS pH 7.4, 5 mM MgCl2, 0.1 mM EGTA, 1 mM DTT) for 30 s, 25 °C; sub-saturating α-catenin; consensus and 3DVA-sorted reconstructions

B1: C-terminal actin-binding domain (ABD) of human α-catenin (AA 664-906) (domain or fragment, UniProt P35221 664-906, looked up)
chain: IAGQSARAIMAQLPQEQKAKIAEQVASFQEEKSKLDAEVSKWDDSGNDIIVLAKQMCMIMMEMTDFTRGKGPLKNTSDVISAAKKIAEAGSRMDKLGRTIADHCPDSACKQDLLAYLQRIALYCHQLNICSKVKAEVQNLGGELVVSGVDSAMSLIQAAKNLMNAVVQTVKASYVASTKYQKSQGMASLNLPAVSWKMKAPEKKPLVKREKQDETQTKIKRASQKKHVNPVQALSEFKAMDSI
notes: Tags were removed with TEV protease; also called α-catenin ABD; αE-catenin ABD; source: E. coli Rosetta2(DE3), purified (Ni-NTA, TEV cleavage, anion exchange, size exclusion); not shown: 6XHis, N-terminal, cleaved; strep tag, N-terminal, cleaved
binding result: binds
